The values below come from patent publication US20230357340A1.

For experiment [1], the target named is recombinant mouse IL-18 protein (mouse) (UniProt P70380).
Experiment [2] has as its target recombinant human IL-18 (human) (UniProt Q14116). Description: cell-based or functional assay.

Sequence of recombinant mouse IL-18 protein (mouse) (P70380 36-192 limits assumed): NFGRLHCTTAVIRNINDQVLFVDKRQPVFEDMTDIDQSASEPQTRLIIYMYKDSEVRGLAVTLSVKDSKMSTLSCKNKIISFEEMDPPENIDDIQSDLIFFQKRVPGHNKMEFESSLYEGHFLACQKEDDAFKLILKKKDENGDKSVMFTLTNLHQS
Sequence of recombinant human IL-18 (human) (Q14116 37-193 limits assumed): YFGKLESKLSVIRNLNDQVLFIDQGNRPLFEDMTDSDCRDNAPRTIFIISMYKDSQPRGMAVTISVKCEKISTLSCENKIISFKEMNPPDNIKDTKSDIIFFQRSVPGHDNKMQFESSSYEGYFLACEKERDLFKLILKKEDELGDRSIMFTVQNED

With “hIL18BP-His(SinoBio.) (from UniProt O95998)”, in experiment [1], the IC50 (read off the curve); mouse IL-18-induced IFN-γ secretion by mouse CD4+ T cells turned out to be 1 nM.

As to “recombinant human interleukin-18-binding protein with C-terminal His-tag (hIL18BP-his8) (from UniProt O95998 31-194)”, the IC50 of inhibition of IL-18-induced IFN-γ production in KG-1 cells in experiment [2] is 0.024 nM. The IC50 (read off the curve); mouse IL-18-induced IFN-γ secretion by mouse CD4+ T cells in experiment [1] worked out at 0.3 nM.
